Measured values: patent US20240376151A1, “STAPLED PEPTIDES AND METHODS THEREOF” (FOG PHARMACEUTICALS, INC., priority 2022, published 2024)
Ends that are not written are not given here.

Molecular target: T1, CUL5 (Homo sapiens, UniProt Q93034, L345D/V341R)
T1 construct: GST-TEV (N, cleaved yes); made in house; host or cells: E. coli BL21 CodonPlus
T1 sequence (Q93034 1-386 V341R/L345D): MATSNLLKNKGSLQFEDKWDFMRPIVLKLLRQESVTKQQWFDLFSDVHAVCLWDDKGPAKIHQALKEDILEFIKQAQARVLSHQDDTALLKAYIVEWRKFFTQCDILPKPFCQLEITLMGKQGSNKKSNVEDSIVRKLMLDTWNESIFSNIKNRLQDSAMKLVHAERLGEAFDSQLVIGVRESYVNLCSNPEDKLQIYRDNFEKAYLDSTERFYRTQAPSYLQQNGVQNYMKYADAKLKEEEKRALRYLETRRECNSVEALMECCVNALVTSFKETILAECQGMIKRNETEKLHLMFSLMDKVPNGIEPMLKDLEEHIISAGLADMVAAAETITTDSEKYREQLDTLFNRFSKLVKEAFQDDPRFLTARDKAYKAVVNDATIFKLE
Assay: Naive Library Presenter Screening (phage, NGS), CUL5
Format: binding
Details: for interaction data at Target Concentration 10: CUL5 target concentration 10 nM; for interaction data at Target Concentration 30: CUL5 target concentration 30 nM; for interaction data at Target Concentration 100: CUL5 target concentration 100 nM; for interaction data at Target Concentration 300: CUL5 target concentration 300 nM; for interaction data at Target Concentration 1000: CUL5 target concentration 1000 nM

| Sequence | interaction data at Target Concentration 10 | interaction data at Target Concentration 30 | interaction data at Target Concentration 100 | interaction data at Target Concentration 300 | interaction data at Target Concentration 1000 (first column) | interaction data at Target Concentration 1000 (second column) |
| --- | --- | --- | --- | --- | --- | --- |
| DPAWWECAEAAWQCQVL | 0 | 6 | 44 | 20 | 59 | 0 |
| DPAWQWCAEAAWQCITH (not fully specified (C-terminus, bridges); cysteine pairing not given here) | 14 | 59 | 284 | 284 | 265 | 0 |
| DPAWMTCATAAWECYLA | 6 | 6 | 62 | 48 | 55 | 0 |
| DPAWRACAQAAWDCIIA | 1 | 167 | 267 | 385 | 368 | 0 |
| DPAWYECASAAWVCYSM | 0 | 13 | 94 | 60 | 171 | 0 |
| DPAWHMCAEAAWQCAFW (not fully specified (C-terminus, bridges); cysteine pairing not given here) | 5 | 61 | 106 | 119 | 152 | 0 |
| DPAYYVCAEAAWNCLFE | 4 | 46 | 104 | 100 | 76 | 0 |
| DPATFACANAAWECYAR | 0 | 6 | 25 | 11 | 35 | 0 |
| DPAWMRCATAAWECVMT | 16 | 22 | 151 | 104 | – | 0 |
| DPAIQQCAEAAWSCYVE | 0 | 13 | 30 | 40 | 14 | 0 |
